From patent publication US20150307621A1 (Kyowa Kirin, published 2015)

What was measured:
mouse CD98 = target: T1, mouse CD98 (mouse, UniProt P10852 1-526, limits assumed); assay: not described at this place
T1 construct: also called mCD98
T1 sequence (looked up): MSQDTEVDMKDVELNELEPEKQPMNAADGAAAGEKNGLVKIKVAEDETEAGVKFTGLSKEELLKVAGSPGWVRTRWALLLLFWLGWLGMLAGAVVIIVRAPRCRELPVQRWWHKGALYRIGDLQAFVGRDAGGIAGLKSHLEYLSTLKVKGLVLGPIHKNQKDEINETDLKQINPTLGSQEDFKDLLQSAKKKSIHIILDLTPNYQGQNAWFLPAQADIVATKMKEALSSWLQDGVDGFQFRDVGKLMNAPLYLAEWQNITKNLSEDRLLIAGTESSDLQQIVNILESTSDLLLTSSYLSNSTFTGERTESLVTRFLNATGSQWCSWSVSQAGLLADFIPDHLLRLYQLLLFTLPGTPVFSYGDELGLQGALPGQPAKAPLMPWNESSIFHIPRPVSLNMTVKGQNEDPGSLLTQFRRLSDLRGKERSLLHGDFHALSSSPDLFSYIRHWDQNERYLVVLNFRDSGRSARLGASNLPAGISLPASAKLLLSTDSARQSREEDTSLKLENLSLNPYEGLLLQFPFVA

[1] = target: T2, human LAT1-EGFP on L929 cells (human, UniProt Q01650 1-507); assay: FACS on hLAT1-E-expressing L929 cells
T2 construct: L929 cells transfected with pEF1/hLAT1-EGFP alone; also called hLAT1-E; hLAT1-EGFP; not shown: EGFP and the short vector-encoded linker (pEGFP-N1) at the C terminus of hLAT1
T2 sequence (Q01650 whole entry): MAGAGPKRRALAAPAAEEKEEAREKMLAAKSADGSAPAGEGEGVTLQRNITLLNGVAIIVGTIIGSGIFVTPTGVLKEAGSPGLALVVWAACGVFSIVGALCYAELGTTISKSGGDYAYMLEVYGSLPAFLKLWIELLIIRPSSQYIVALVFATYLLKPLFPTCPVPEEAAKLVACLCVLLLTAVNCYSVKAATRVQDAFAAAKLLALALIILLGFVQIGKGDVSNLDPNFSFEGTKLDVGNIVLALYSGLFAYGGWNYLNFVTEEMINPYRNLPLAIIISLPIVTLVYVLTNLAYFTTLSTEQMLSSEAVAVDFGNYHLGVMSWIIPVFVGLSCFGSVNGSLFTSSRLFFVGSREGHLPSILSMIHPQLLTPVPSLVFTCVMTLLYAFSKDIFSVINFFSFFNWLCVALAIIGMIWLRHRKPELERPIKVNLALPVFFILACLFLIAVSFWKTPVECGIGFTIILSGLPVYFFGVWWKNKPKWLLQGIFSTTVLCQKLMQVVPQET

human CD98 = target: T3, human CD98 (human, UniProt P08195 2-529); assay: FACS, antibody 5 µg/mL, hCD98-expressing L929 cells
T3 construct: also called hCD98; 4F2
T3 sequence: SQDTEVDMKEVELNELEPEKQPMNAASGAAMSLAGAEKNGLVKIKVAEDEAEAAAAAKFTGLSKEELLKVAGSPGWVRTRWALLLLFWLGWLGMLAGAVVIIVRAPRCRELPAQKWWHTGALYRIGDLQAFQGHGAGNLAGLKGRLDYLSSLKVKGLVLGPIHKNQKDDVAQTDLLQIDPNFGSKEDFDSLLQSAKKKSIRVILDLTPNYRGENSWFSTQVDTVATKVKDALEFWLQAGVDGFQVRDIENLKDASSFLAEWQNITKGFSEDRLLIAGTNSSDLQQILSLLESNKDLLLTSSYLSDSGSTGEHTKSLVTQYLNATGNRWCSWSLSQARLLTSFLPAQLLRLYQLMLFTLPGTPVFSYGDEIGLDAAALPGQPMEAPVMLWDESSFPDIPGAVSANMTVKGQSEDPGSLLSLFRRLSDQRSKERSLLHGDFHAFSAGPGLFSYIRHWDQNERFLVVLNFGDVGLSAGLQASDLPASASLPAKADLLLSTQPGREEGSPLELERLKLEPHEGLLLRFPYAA

[2] = target: T4, CD98 on normal human aortic endothelial cells (HAEC) (human, UniProt P08195 2-529); assay: FACS on cultured HAEC, antibody 3.2 ng/mL to 50 µg/mL
T4 sequence: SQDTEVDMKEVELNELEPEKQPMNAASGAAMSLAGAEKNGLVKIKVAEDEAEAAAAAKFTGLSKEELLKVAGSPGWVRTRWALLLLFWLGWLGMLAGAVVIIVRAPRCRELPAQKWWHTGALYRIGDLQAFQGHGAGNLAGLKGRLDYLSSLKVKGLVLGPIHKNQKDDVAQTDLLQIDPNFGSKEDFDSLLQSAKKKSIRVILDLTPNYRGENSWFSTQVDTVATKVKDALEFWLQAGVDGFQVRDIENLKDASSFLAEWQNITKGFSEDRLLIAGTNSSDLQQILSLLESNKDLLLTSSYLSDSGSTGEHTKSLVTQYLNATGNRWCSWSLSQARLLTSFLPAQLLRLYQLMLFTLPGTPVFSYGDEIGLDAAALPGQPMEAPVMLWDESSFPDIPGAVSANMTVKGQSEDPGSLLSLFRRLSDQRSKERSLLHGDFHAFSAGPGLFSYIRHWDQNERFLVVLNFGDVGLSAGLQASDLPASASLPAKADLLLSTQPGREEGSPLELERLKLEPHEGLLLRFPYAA

[3] = target: T5, human CD98/human LAT1-EGFP complex on transfected CT26 or L929 cells (human, UniProt P08195 1-529; Q01650 1-507, CD98 and LAT1 are linked by a disulfide bond on the cell membrane); assay: FACS, antibody 5 µg/mL, transfected CT26 or L929 cells
T5 construct: also called hCD98/hLAT1-E; hCD98/hLAT1; not shown: EGFP and the short vector-encoded linker (pEGFP-N1) fused to the intracellular C terminus of hLAT1
T5 sequence (Q01650 whole entry, the tested form may be a part, one chain of several): as the sequence (Q01650 whole entry) above

[4] = target: T6, CD98 on human peripheral blood monocytes, PHA-activated T cells and activated B cells (human, UniProt P08195 2-529); assay: FACS with FITC-labeled antibody 5 µg/mL on human peripheral blood cells
T6 sequence: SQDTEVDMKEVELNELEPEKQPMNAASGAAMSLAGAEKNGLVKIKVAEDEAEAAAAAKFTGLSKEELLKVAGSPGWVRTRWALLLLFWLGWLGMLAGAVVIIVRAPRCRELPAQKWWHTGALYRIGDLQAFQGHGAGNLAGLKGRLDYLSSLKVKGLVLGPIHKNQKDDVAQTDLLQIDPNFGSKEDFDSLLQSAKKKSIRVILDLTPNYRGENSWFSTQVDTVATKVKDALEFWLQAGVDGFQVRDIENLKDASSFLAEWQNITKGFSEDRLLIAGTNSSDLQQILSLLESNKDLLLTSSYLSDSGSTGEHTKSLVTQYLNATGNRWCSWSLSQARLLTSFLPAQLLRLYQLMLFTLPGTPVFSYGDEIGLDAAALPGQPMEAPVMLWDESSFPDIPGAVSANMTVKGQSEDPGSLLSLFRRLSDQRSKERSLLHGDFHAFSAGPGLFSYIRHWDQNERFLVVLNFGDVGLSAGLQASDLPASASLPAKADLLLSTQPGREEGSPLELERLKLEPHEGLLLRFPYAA

B1: human anti-CD98 monoclonal antibody 3-69-6 (antibody, V domains shown)
VH: QVQLVQSGAEVKKPGASVKVSCKASGYTFTSYGISWMRQAPGQGLEWMGWISAYNGNTNYVQKFQDRVTMTRDTSTSTAYMELRSLRSDDTAVYYCARDRGSNWYGWFDPWGQGTLVTVSS
VL: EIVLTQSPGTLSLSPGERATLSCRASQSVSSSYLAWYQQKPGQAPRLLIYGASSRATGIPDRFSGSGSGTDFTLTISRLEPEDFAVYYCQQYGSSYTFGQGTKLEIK
notes: Recombinant human IgG1/kappa (N5KG1-Val Lark vector); Entries begin with residues translated from the cloning site (RRPT, RSLT) and the leader peptide; also called 3-69-6IgG1
binding result (mouse CD98): no binding
binding result [1]: no binding (tested: 5 µg/mL)

B2: human anti-CD98 monoclonal antibody C2IgG1 (antibody, V domains shown)
VH: QLQLQESGPGLVKPSETLSLTCTVSGGSISSSSYYWGWIRQPPGKGLEWIGSIYYSGSTYYNPSLKSRVTISVDTSKSQFFLKLSSVTAADTAVYYCARQGTGLALFDYWGQGTLVTVSS
VL: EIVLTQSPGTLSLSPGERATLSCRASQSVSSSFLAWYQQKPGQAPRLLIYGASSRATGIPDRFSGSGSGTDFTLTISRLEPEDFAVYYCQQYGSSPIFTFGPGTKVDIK
notes: Recombinant IgG1/kappa form of the C2 hybridoma antibody (hybridoma C2 is IgM); The entries begin with residues translated from the cloning site (STT, RSLT) and the leader peptide; also called 4-35-14
binding result (mouse CD98): no binding
binding result [1]: no binding (tested: 5 µg/mL)

B3: human anti-CD98 monoclonal antibody K3 (antibody, V domains shown)
VH: EVQLVQSGAEVKKPGESLKISCKGSGYRFTDYWIGWVRQMPGKGLEWMGIFYPGDSDARYSPSFQGQVTISADKSINTAYLQWSSLKASDTAMYYCARRRDIVGGTDYWGQGTLVTVSS
VL: EIVLTQSPATLSLSPGERATLSCRASQSVSSYLDWYQQKPGQAPRLLIYDASSRATGIPARFSGSGSGTDFTLTISSLEPEDFAVYYCQQRSNWITFGQGTRLEIK
notes: Recombinant human IgG1/kappa (variable regions put into the N5KG1-Val Lark vector); The entries begin with the leader peptide; FITC-labelled in some assays; also called 4-32-9; K3IgG1
binding result (mouse CD98): no binding
binding result [1]: no binding (tested: 5 µg/mL)
binding result (human CD98): binds
binding result [2]: binds
binding result [3]: binds
binding result [4]: binds

B4: human anti-CD98 monoclonal antibody 1-40-1 (antibody, V domains shown)
VH: EVQLVESGGGVVRPGGSLRLSCAASGFTFDDYGMTWVRQAPGKGLEWVSTISWNGGGTGYADSVKGRFTISRDNAKNSLYLQMNSLRAEDTALYYCAGYCIITGCYADYWGQGTLVTVSS
VL: EIVLTQSPATLSLSPGERATLSCRASQSVSSYLAWYQQKPGQAPRLLIYDASNRATGIPARFSGSGSGTDFTLTISSLEPEDFAVYYCQQRSNWWTFGQGTKVEIK
notes: Recombinant human IgG1/kappa (N5KG1-Val Lark vector); Entries begin with the leader peptide; also called 1-40-1IgG1
binding result (mouse CD98): no binding
binding result [1]: no binding (tested: 5 µg/mL)
binding result (human CD98): binds
binding result [2]: binds
binding result [3]: binds
binding result [4]: binds
